Reference: publication PMC5344783 (Molecular microbiology, 2017)

T1: StkP-FLAG^2 (Streptococcus pneumoniae (strain D39 …, UniProt Q8DNS0 1-659))
T1 sequence: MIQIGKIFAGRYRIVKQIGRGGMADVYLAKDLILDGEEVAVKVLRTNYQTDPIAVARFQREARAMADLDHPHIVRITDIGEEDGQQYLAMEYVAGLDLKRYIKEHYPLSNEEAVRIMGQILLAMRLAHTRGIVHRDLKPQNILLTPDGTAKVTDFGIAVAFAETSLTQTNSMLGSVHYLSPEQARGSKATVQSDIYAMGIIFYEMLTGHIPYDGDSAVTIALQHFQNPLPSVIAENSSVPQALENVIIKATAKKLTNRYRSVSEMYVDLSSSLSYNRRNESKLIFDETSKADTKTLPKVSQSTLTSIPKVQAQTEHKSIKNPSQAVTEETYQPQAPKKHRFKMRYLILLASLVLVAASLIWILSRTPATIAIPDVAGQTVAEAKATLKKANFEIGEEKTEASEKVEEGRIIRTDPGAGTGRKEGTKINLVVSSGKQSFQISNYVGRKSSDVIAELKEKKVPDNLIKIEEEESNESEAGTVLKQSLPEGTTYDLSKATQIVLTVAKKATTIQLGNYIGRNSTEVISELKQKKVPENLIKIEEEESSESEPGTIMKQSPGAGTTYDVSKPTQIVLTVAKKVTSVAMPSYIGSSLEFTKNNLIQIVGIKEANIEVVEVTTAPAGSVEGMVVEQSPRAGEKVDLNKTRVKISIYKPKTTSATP

T2: GpsB-L-FLAG^3 (Streptococcus pneumoniae (strain D39 …, UniProt Q8DR57 1-109))
T2 sequence: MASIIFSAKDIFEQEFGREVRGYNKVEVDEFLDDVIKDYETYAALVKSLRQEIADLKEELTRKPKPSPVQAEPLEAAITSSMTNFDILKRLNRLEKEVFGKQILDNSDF

T3: EzrA-L-FLAG^3 (Streptococcus pneumoniae (strain D39 …, UniProt Q8DQE5 1-575))
T3 sequence: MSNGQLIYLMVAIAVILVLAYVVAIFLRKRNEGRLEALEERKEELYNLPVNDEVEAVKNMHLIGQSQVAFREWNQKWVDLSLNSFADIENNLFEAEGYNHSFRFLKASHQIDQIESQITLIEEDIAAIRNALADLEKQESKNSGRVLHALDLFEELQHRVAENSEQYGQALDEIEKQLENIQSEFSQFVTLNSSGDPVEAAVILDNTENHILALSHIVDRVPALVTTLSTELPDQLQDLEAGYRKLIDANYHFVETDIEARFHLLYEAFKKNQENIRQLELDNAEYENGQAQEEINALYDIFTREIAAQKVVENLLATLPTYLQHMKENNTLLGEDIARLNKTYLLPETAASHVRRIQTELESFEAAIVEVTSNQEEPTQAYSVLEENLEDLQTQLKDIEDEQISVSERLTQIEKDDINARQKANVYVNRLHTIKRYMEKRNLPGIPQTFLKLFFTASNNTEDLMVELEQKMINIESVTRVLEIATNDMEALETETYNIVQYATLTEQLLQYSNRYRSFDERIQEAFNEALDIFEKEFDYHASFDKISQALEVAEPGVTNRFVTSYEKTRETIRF


Columns and labels:
Assay in all cases: co-IP
[1] = molecular target: T1, StkP-FLAG^2
[2] = molecular target: T2, GpsB-L-FLAG^3
[3] = molecular target: T3, EzrA-L-FLAG^3

| Binder | ratio of prey protein band, StkP-FLAG^2 bait to StkP^+ control [1] [ratio] | ratio of prey protein band, GpsB-L-FLAG^3 bait to GpsB^+ control [2] [ratio] | ratio of prey protein band, EzrA-L-FLAG^3 bait to EzrA^+ control [3] [ratio] |
| --- | --- | --- | --- |
| MreC (natural protein) MNRFKKSKYVIIVFVTVLLVSALLATTYSSTIVTKLGDGISLVDRVVQKPFQWFDSVKSDLAHLTRTYNENESLKKQLYQLEVKSNEVESLKTENEQLRQLLDMKSKLQATKTLAADVIMRSPVSWKQELTLDAGRSKGASENMLAIANGGLIGSVSKVEENSTIVNLLTNTENADKISVKIQHGSTTIYGIIIGYDKENDVLKISQLNSNSDISAGDKVTTGGLGNFNVADIPVGEVVATTHSTDYLTREVTVKLSADTHNVDVIELVGNS | 8.5 | 6.2 |  |
| FtsZ-Myc (natural protein) MTFSFDTAAAQGAVIKVIGVGGGGGNAINRMVDEGVTGVEFIAANTDVQALSSTKAETVIQLGPKLTRGLGAGGQPEVGRKAAEESEETLTEAISGADMVFITAGMGGGSGTGAAPVIARIAKDLGALTVGVVTRPFGFEGSKRGQFAVEGINQLREHVDTLLIISNNNLLEIVDKKTPLLEALSEADNVLRQGVQGITDLITNPGLINLDFADVKTVMANKGNALMGIGIGSGEERVVEAARKAIYSPLLETTIDGAEDVIVNVTGGLDLTLIEAEEASQIVNQAAGQGVNIWLGTSIDESMRDEIRVTVVATGVRQDRVEKVVAPQARSATNYRETVKPAHSHGFDRHFDMAETVELPKQNPRRLEPTQASAFGDWDLRRESIVRTTDSVVSPVERFEAPISQDEDELDTPPFFKNR |  |  | 15 |
| aPBP2a-HA^4 (enzyme) MKLDKLFEKFLSLFKKETSELEDSDSTILRRSRSDRKKLAQVGPIRKFWRRYHLTKIILILGLSAGLLVGIYLFAVAKSTNVNDLQNALKTRTLIFDREEKEAGALSGQKGTYVELTDISKNLQNAVIATEDRSFYKNDGINYGRFFLAIVTAGRSGGGSTITQQLAKNAYLSQDQTVERKAKEFFLALELSKKYSKEQILTMYLNNAYFGNGVWGVEDASKKYFGVSASEVSLDQAATLAGMLKGPELYNPLNSVEDSTNRRDTVLQNMVAAGYIDKNQETEAAEVDMTSQLHDKYEGKISDYRYPSYFDAVVNEAVSKYNLTEEEIVNNGYRIYTELDQNYQANMQIVYENTSLFPRAEDGTFAQSGSVALEPKTGGVRGVVGQVADNDKTGFRNFNYATQSKRSPGSTIKPLVVYTPAVEAGWALNKQLDNHTMQYDSYKVDNYAGIKTSREVPMYQSLAESLNLPAVATVNDLGVDKAFEAGEKFGLNMEKVDRVLGVALGSGVETNPLQMAQAYAAFANEGLMPEAHFISRIENASGQVIASHKNSQKRVIDKSVADKMTSMMLGTFTNGTGISSSPADYVMAGKTGTTEAVFNPEYTSDQWVIGYTPDVVISHWLGFPTTDENHYLAGSTSNGAAHVFRNIANTILPYTPGSTFTVENAYKQNGIAPANTKRQVQTNDNSQTDDNLSDIRGRAQSLVDEASRAISDAKIKEKAQTIWDSIVNLFR |  | 4 |  |
| bPBP2x-HA (enzyme) MKWTKRVIRYATKNRKSPAENRRRVGKSLSLLSVFVFAIFLVNFAVIIGTGTRFGTDLAKEAKKVHQTTRTVPAKRGTIYDRNGVPIAEDATSYNVYAVIDENYKSATGKILYVEKTQFNKVAEVFHKYLDMEESYVREQLSQPNLKQVSFGAKGNGITYANMMSIKKELEAAEVKGIDFTTSPNRSYPNGQFASSFIGLAQLHENEDGSKSLLGTSGMESSLNSILAGTDGIITYEKDRLGNIVPGTEQVSQRTMDGKDVYTTISSPLQSFMETQMDAFQEKVKGKYMTATLVSAKTGEILATTQRPTFDADTKEGITEDFVWRDILYQSNYEPGSTMKVMMLAAAIDNNTFPGGEVFNSSELKIADATIRDWDVNEGLTGGRTMTFSQGFAHSSNVGMTLLEQKMGDATWLDYLNRFKFGVPTRFGLTDEYAGQLPADNIVNIAQSSFGQGISVTQTQMIRAFTAIANDGVMLEPKFISAIYDPNDQTARKSQKEIVGNPVSKDAASLTRTNMVLVGTDPVYGTMYNHSTGKPTVTVPGQNVALKSGTAQIADEKNGGYLVGLTDYIFSAVSMSPAENPDFILYVTVQQPEHYSGIQLGEFANPILERASAMKDSLNLQTTAKALEQVSQQSPYPMPSVKDISPGDLAEELRRNLVQPIVVGTGTKIKNSSAEEGKNLAPNQQVLILSDKAEEVPDMYGWTKETAETLAKWLNIELEFQGSGSTVQKQDVRANTAIKDIKKITLTLGD | 3.4 |  |  |
| EzrA-HA (natural protein) MSNGQLIYLMVAIAVILVLAYVVAIFLRKRNEGRLEALEERKEELYNLPVNDEVEAVKNMHLIGQSQVAFREWNQKWVDLSLNSFADIENNLFEAEGYNHSFRFLKASHQIDQIESQITLIEEDIAAIRNALADLEKQESKNSGRVLHALDLFEELQHRVAENSEQYGQALDEIEKQLENIQSEFSQFVTLNSSGDPVEAAVILDNTENHILALSHIVDRVPALVTTLSTELPDQLQDLEAGYRKLIDANYHFVETDIEARFHLLYEAFKKNQENIRQLELDNAEYENGQAQEEINALYDIFTREIAAQKVVENLLATLPTYLQHMKENNTLLGEDIARLNKTYLLPETAASHVRRIQTELESFEAAIVEVTSNQEEPTQAYSVLEENLEDLQTQLKDIEDEQISVSERLTQIEKDDINARQKANVYVNRLHTIKRYMEKRNLPGIPQTFLKLFFTASNNTEDLMVELEQKMINIESVTRVLEIATNDMEALETETYNIVQYATLTEQLLQYSNRYRSFDERIQEAFNEALDIFEKEFDYHASFDKISQALEVAEPGVTNRFVTSYEKTRETIRF |  | 5.4 |  |
| bPBP2b-HA (enzyme) MRKFNSHSIPIRLNLLFSIVILLFMTIIGRLLYMQVLNKDFYEKKLASASQTKITSSSARGEIYDASGKPLVENTLKQVVSFTRSNKMTATDLKETAKKLLTYVSISSPNLTERQLADYYLADPEIYKKIVEALPSEKRLDSDGNRLSESELYNNAVDSVQTSQLNYTEDEKKEIYLFSQLNAVGNFATGTIATDPLNDSQVAVIASISKEMPGISISTSWDRKVLETSLSSIVGSVSSEKAGLPAEEAEAYLKKGYSLNDRVGTSYLEKQYEETLQGKRSVKEIHLDKYGNMESVDTIEEGSKGNNIKLTIDLAFQDSVDALLKSYFNSELENGGAKYSEGVYAVALNPKTGAVLSMSGIKHDLKTGELTPDSLGTVTNVFVPGSVVKAATISSGWENGVLSGNQTLTDQSIVFQGSAPINSWYTQAYGSFPITAVQALEYSSNTYMVQTALGLMGQTYQPNMFVGTSNLESAMEKLRSTFGEYGLGTATGIDLPDESTGFVPKEYSFANYITNAFGQFDNYTPMQLAQYVATIANNGVRVAPRIVEGIYGNNDKGGLGDLIQQLQPTEMNKVNISDSDMSILHQGFYQVAHGTSGLTTGRAFSNGALVSISGKTGTAESYVADGQQATNTNAVAYAPSDNPQIAVAVVFPHNTNLTNGVGPSIARDIINLYQKYHPMN | 8.1 | 18.3 |  |
